Target: T1, NT-L +278 VP16 (R23570V) (Xanthomonas sp. (engineered), UniProt P14727 SEQ:1-1013)
T1 chain: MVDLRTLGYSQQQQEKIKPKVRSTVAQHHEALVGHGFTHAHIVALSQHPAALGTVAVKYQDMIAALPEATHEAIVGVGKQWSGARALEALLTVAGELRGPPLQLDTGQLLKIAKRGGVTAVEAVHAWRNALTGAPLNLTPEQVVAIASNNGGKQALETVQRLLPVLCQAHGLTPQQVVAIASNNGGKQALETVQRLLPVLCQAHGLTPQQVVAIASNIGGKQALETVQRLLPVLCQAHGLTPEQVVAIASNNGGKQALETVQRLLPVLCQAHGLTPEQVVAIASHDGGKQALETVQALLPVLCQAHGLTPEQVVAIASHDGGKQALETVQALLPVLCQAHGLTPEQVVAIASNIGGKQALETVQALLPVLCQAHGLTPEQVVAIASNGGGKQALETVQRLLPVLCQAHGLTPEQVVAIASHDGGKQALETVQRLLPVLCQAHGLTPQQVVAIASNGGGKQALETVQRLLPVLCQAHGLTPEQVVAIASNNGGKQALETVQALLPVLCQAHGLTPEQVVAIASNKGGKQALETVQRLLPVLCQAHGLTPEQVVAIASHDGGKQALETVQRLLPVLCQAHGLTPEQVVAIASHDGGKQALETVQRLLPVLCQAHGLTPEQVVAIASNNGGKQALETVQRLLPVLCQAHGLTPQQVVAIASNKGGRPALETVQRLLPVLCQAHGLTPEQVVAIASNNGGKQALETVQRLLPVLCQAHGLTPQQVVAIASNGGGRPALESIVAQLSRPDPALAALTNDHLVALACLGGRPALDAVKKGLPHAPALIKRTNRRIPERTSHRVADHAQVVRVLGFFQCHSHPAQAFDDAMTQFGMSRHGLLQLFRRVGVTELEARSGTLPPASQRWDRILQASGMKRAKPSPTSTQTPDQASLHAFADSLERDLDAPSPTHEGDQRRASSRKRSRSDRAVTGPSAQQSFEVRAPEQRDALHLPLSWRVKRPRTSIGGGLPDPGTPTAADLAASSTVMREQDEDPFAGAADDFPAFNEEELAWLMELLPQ
Assay: cell_activity; luciferase reporter with 2 sites
Conditions: tags: VP16

B1: NT-L target (NTF3 promoter) (dsDNA)
DNA 1: GGAGCCATCTGGCCGGGT
DNA 2: ACCCGGCCAGATGGCTCC
  activity: 74.5 fold activation

Reference: US20110301073, “Novel DNA-binding proteins and uses thereof” (Sangamo BioSciences, Inc., published 2011)
